Where two headings read alike, the source gives them in different places.
Columns and labels:
AUC [1] = target: the molecule itself; assay: AUC
AUC [2] = target: the molecule itself; assay: AUC; remark: listed apart in the source
L1 ORF1p [3] = target: T1, L1 ORF1p (Homo sapiens (L1.3, Ta-1 subfamily of …, UniProt Q9UN81)); assay: EMSA
L1 ORF1p [4] = target: T1, L1 ORF1p; assay: EMSA; remark: listed apart in the source
L1 ORF1p [5] = target: T1, L1 ORF1p; assay: filter binding
AUC [6] = target: the molecule itself; assay: AUC; remark: listed apart in the source
L1 ORF1p [7] = target: T1, L1 ORF1p; assay: EMSA; remark: listed apart in the source
L1 ORF1p [8] = target: T1, L1 ORF1p; assay: filter binding; remark: listed apart in the source
L1 ORF1p [9] = target: T1, L1 ORF1p; assay: filter binding; remark: listed apart in the source
L1 ORF1p [10] = target: T1, L1 ORF1p; assay: filter binding; remark: listed apart in the source

B1: M128p, N-terminal deletion mutant of human L1 ORF1p (residues 128-338) (domain or fragment)
chain: GMKREGKFREKRIKRNEQSLQEIWDYVKRPNLRLIGVPESDVENGTKLENTLQDIIQENFPNLARQANVQIQEIQRTPQRYSSRRATPRHIIVRFTKVEMKEKMLRAAREKGRVTLKGKPIRLTADLSAETLQARREWGPIFNILKEKNFQPRISYPAKLSFISEGEIKYFIDKQMLRDFVTTRPALKELLKEALNMERNNRYQPLQNHAKM
Kd (AUC [1]): ~3.4 µM | stoichiometry N (AUC [1]): 3 | Kd (AUC [2]): ~35 µM

B2: d53_pT-b (ssDNA)
DNA: GAGAGATTTTTTTTTTTTTTTTTTTTTTTTTTTTTTTTTTTTTTTTCCAGAGC
binding result (L1 ORF1p [3]): binds

B3: r60_U (ssRNA)
RNA: UUUUUUUUUUUUUUUUUUUUUUUUUUUUUUUUUUUUUUUUUUUUUUUUUUUUUUUUUUUU
binding result (L1 ORF1p [3]): binds

B4: d60_orf1 (ssDNA)
DNA: GATCATGCAGGACAGTCGGATCGCAACCTGATTTACTGTGTCATATAGTACGTGATTCAG
binding result (L1 ORF1p [3]): binds

B5: d120_c (ssDNA)
DNA: AGCGAGTTGATGTTAGACTGTGTACTTTTTGCGAGTTGATGTTAGACTGTGTACTTTTTAAGCGAGTTGATGTTAGACTGTGTACTTTTTGCGAGTTGATGTTAGACTGTGTACTTTTTA
binding result (L1 ORF1p [4]): binds

GCGAGTTGATGTTAGACTGTGTACTTTTT (ssDNA) [d29_c]
binding signal (L1 ORF1p [5]): ~1 fold of mismatched duplex affinity

B6: human L1 ORF1 protein (ORF1p), full length, expressed in insect cells (natural protein)
chain: GMGKKQNRKTGNSKTQSASPPPKERSSSPATEQSWMENDFDELREEGFRRSNYSELREDIQTKGKEVENFEKNLEECITRITNTEKCLKELMELKTKARELREECRSLRSRCDQLEERVSAMEDEMNEMKREGKFREKRIKRNEQSLQEIWDYVKRPNLRLIGVPESDVENGTKLENTLQDIIQENFPNLARQANVQIQEIQRTPQRYSSRRATPRHIIVRFTKVEMKEKMLRAAREKGRVTLKGKPIRLTADLSAETLQARREWGPIFNILKEKNFQPRISYPAKLSFISEGEIKYFIDKQMLRDFVTTRPALKELLKEALNMERNNRYQPLQNHAKM
stoichiometry N (AUC [6]): 3

B7: d58_pT-b (ssDNA)
DNA: GAGAGATTTTTTTTTTTTTTTTTTTTTTTTTTTTTTTTTTTTTTTTTTTTTCCAGAGC
binding result (L1 ORF1p [7]): binds

B8: d29:d29_c perfect duplex (dsDNA)
DNA 1: AAAAAGTACACAGTCTAACATCAACTCGC
DNA 2: GCGAGTTGATGTTAGACTGTGTACTTTTT
binding signal (L1 ORF1p [8]): ~8 fold lower affinity than mismatched duplex N10

B9: d29:d29_cmm mismatched duplex (dsDNA)
DNA 1: AAAAAGTACACAGTCTAACATCAACTCGC
DNA 2: GCGAGTTGACGTCAGACCGTGCACTTTTT
binding signal (L1 ORF1p [9]): ~1 fold of ssDNA d29_c affinity

B10: d60_c (ssDNA)
DNA: AGCGAGTTGATGTTAGACTGTGTACTTTTTGCGAGTTGATGTTAGACTGTGTACTTTTTA
apparent K (half saturation) (L1 ORF1p [10]): ~1 nM

ACCUGCACAAUGUGCACAUGAAAAAAAAAA (ssRNA) [r30_3'utr-a]
apparent K (half saturation) (L1 ORF1p [10]): ~1 nM
